Data from US9107936B2, “Antagonists of GRASP55 for use as a medicament” (Institut National de la Sante et de la Recherche Medicale …, priority 2012, dated 2015).

What was measured:
[1] = system: B16F10 cells; assay: ELISA of soluble JAM-C in cell culture supernatant; type: cell-based, mouse; details: B16F10 control 0.27±0.02; mean±SEM
Method: An ELISA was designed to determine the concentration of soluble JAM-C in cell culture supernatants. Ninety-six-well plates (Nalge Nunc International) were coated overnight at room temperature with rat anti-mouse JAM-C antibody H36 (home-made). Plates were washed and blocked with buffer containing PBS and 2% of bovine albumin for 2 hours. Cell culture supernatants from different cell conditions were incubated during 3 hours. Plates were washed, and polyclonal rabbit anti-JAM-C (501) was added for 1 hour at room temperature. After three washes, donkey anti-rabbit HRP antibody was put on. To reveal the final read out, the substrate of HRP, tetramethylbenzidine ([…]) is adjoined. The absorbance lecture (D.O at 450 nm) is carried out on a ELISA POLARstar reader.

[2] = system: B16F10 cells; assay: wound healing assay (cell migration); type: cell-based, mouse; details: B16F10 stably transfected with shRNA; shctrl 249±5; Mean+/−SEM
Method: Transient transfections were performed on a 50% confluent monolayer of B16F10 cells with either 10 nM of siRNA or 5 μg of shRNA against luciferase used as a control or shRNA against GRASP55 in Lipofectamine RNAimax (Invitrogen). Transfection efficiency was monitored at 24 h by qRT-PCR and Western blots for the expression of GRASP55 transcript or protein. For selection of stable transfectants, cells were grown in DMEM containing 10 μg/ml of puromycine (Sigma Aldrich) starting 48 h after transfection.
For in vitro wound healing assays, 80% confluent monolayers of wild-type B16F10 cells or B16F10 cells transfected with various siRNA or shRNA were grown in both chambers of Ibidi culture inserts with defined cell free gaps. Cells were subjected to serum starvation for 24 h, before wounds were created by removing Ibidi culture inserts that define cell gaps of 400 μm. The wound healing was carried out for 8 h in complete DMEM medium and was recorded at various times after wounding. Analysis of wound closure was performed using Metamorph software and is expressed as mean speed per minute.

[3] = target: T1, JAM-C (Mus musculus, UniProt Q9D8B7); assay: yeast two hybrid interaction of Grasp55 constructs with JAM-C; type: binding, murine; set-up: key: Symbols “+++” and “−” indicates the growth of yeast on selective media as shown in the FIGURE 13; Symbols “+++” and “−” indicates the growth of yeast on selective media as shown in the FIGURE 13
T1 construct: amino-acids 263 to 310 of murine JAM-C; expressed in transfected cells; host or cells: AH109 yeast strain
T1 sequence (Q9D8B7 263-310): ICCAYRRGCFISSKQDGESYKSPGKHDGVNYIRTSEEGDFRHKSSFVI
From the text: (§1) The different GRASP55 constructs were cloned into pGBT9 GW vector (Ga14 DNA-binding domain fusion vector, Trp) as well in the pACT2 GW vector (Gal4 DNA-activation domain fusion vector, Leu) using the Gateway technology (Invitrogen). Plasmids were then co-transformed in AH109 yeast strain (/MATa, trp1-901, leu2-3, 112, ura3-52, his3-200, gal4/A, /gal80/A, /LYS2::GAL1//UAS//-GAL1//TATA//-HIS3, GAL2//UAS//-GAL2//TATA//-ADE2, URA3::MEL1//UAS//-MEL1//TATA//-lacZ, MEL1/) in accordance with the previously described transformation protocol (Chien et al. 1991. Proc Natl Acad Sci USA. 88:9578-82). Following co-transformation with the two vectors containing the different constructs (as well as the empty vector to test self activation), yeasts were plated onto Synthetic Complete (SC) medium minus Leucine (−L), minus Tryptophan (−W), minus Histidine (−H) and incubated at 30° C. for 4 to 5 days. All yeast media were prepared as previously described.
(§2) In examples 2, the inventors have previously shown that interaction between Grasp55 and C-terminal part of JAM-C requires the peptidic sequence between residues 1 to 160 of Grasp55 (PDZI+II) but cannot occur with residues 1 to 79 of Grasp55 (PDZI) by yeast two hybrid and ELISA assay (FIGS. 2 and 8). In the present example, the interaction sites between JAMs or metalloproteinases involved in JAM regulation and Grasp55 have been mapped using new constructs. To this end, yeast two-hybrid and GST fusion proteins encompassing residues 1 to 107, 108 to 208, and 1 to 208 corresponding respectively to the PDZI′, PDZII′ and PDZI′+II′ constructs have been generated. The former PDZII construct (residues 80 to 160) have also been used to test interaction with the C-terminal sequences of ADAM 10 (of sequence SEQ ID NO: 41) and ADAM 17 (of sequence SEQ ID NO: 42) known to regulate JAM-A and JAM-C release (Table 1). GST fusion proteins were produced and yeast two-hybrid assay was performed as previously described in example 1.

[4] = target: T2, ADAM17 (Mus musculus, UniProt Q9Z0F8, A775V/P752S); assay: yeast two hybrid interaction of Grasp55 constructs with ADAM17 C-terminal sequence; type: binding, murine; set-up: key: Symbols “+++” and “−” indicates the growth of yeast on selective media as shown in the FIGURE 13; Symbols “+++” and “−” indicates the growth of yeast on selective media as shown in the FIGURE 13
T2 construct: expressed in transfected cells; host or cells: AH109 yeast strain
From the text: as §1, §2

[5] = target: T3, JAM-A ΔPDZbm (Mus musculus, UniProt O88792, R268T); assay: yeast two hybrid interaction of Grasp55 constructs with JAM-A ΔPDZbm; type: binding, murine; set-up: key: Symbols “+++” and “−” indicates the growth of yeast on selective media as shown in the FIGURE 13; Symbols “+++” and “−” indicates the growth of yeast on selective media as shown in the FIGURE 13
T3 construct: amino-acids 260 to 299 of murine JAM-A; expressed in transfected cells; host or cells: AH109 yeast strain
T3 sequence (O88792 260-297 R268T): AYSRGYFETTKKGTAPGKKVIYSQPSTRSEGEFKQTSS
From the text: as §1, §2

[6] = target: T4, JAM-C ΔPDZbm (Mus musculus, UniProt Q9D8B7); assay: yeast two hybrid interaction of Grasp55 constructs with JAM-C ΔPDZbm; type: binding, murine; set-up: key: Symbols “+++” and “−” indicates the growth of yeast on selective media as shown in the FIGURE 13; Symbols “+++” and “−” indicates the growth of yeast on selective media as shown in the FIGURE 13
T4 construct: amino-acids 263 to 310 of murine JAM-C; expressed in transfected cells; host or cells: AH109 yeast strain
T4 sequence (Q9D8B7 263-307 limits assumed): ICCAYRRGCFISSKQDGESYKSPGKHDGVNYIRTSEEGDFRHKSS
From the text: as §1, §2

[7] = target: T5, ADAM10 (Mus musculus, UniProt O35598, DEL741-741); assay: yeast two hybrid interaction of Grasp55 constructs with ADAM10 C-terminal sequence; type: binding, murine; set-up: key: Symbols “+++” and “−” indicates the growth of yeast on selective media as shown in the FIGURE 13; Symbols “+++” and “−” indicates the growth of yeast on selective media as shown in the FIGURE 13
T5 construct: expressed in transfected cells; host or cells: AH109 yeast strain
T5 sequence (O35598 with tags, fused parts or gaps DEL741-741): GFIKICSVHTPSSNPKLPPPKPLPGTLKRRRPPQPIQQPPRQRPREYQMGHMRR
From the text: as §1, §2

[8] = target: T6, JAM-B ΔPDZbm (Mus musculus, UniProt Q9JI59); assay: yeast two hybrid interaction of Grasp55 constructs with JAM-B ΔPDZbm; type: binding, murine; set-up: key: Symbols “+++” and “−” indicates the growth of yeast on selective media as shown in the FIGURE 13; Symbols “+++” and “−” indicates the growth of yeast on selective media as shown in the FIGURE 13
T6 construct: amino-acids 258 to 298 of murine JAM-B; expressed in transfected cells; host or cells: AH109 yeast strain
T6 sequence (Q9JI59 258-295 limits assumed): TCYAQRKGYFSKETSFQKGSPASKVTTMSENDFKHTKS
From the text: as §1, §2

[9] = target: T7, JAM-A (Mus musculus, UniProt O88792, R268T); assay: yeast two hybrid interaction of Grasp55 constructs with JAM-A; type: binding, murine; set-up: key: Symbols “+++” and “−” indicates the growth of yeast on selective media as shown in the FIGURE 13; Symbols “+++” and “−” indicates the growth of yeast on selective media as shown in the FIGURE 13
T7 construct: amino-acids 260 to 299 of murine JAM-A; expressed in transfected cells; host or cells: AH109 yeast strain
T7 sequence (O88792 260-300 R268T): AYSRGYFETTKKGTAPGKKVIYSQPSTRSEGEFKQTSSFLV
From the text: as §1, §2

[10] = target: T8, JAM-B (Mus musculus, UniProt Q9JI59); assay: yeast two hybrid interaction of Grasp55 constructs with JAM-B; type: binding, murine; set-up: key: Symbols “+++” and “−” indicates the growth of yeast on selective media as shown in the FIGURE 13; Symbols “+++” and “−” indicates the growth of yeast on selective media as shown in the FIGURE 13
T8 construct: amino-acids 258 to 298 of murine JAM-B; expressed in transfected cells; host or cells: AH109 yeast strain
T8 sequence (Q9JI59 258-298): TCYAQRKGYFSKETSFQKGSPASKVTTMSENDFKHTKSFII
From the text: as §1, §2

T2 sequence (Q9Z0F8 693-827 P752S/A775V): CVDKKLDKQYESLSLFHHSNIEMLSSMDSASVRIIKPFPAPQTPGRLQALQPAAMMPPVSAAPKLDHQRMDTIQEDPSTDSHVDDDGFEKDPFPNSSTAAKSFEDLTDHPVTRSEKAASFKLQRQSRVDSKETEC

interaction with JAM-C (yeast growth on selective media) [3]	interaction with ADAM17 (yeast growth on selective media) [4]	interaction with JAM-A ΔPDZbm (yeast growth on selective media) [5]	interaction with JAM-C ΔPDZbm (yeast growth on selective media) [6]	interaction with ADAM10 (yeast growth on selective media) [7]	interaction with JAM-B ΔPDZbm (yeast growth on selective media) [8]	interaction with JAM-A (yeast growth on selective media) [9]	interaction with JAM-B (yeast growth on selective media) [10]	Substance	quantity of soluble JAM-C in cell culture supernatant [1] [ng/mL]	mean velocity [2] [nm/min]
								shGRASP55: shRNA against mouse GRASP55 in pSUPER.retro, target SEQ ID NO: 11, strands SEQ ID Nos. 12 and 13 (chain 1 CGGUUCAAGAUUAAAUAAATT; chain 2 AATTTATTTAATCTTGAACCG)	0.21 ± 0.01	184 ± 6
−	−	−	−	−	−	−	−	PDZI: Grasp55 construct, residues 1 to 79		
−	+++	−	−	+++	−	−	−	PDZII: Grasp55 construct, residues 80 to 160		
+++	−	−	−	−	−	+++	+++	PDZI + II: Grasp55 construct, residues 1 to 160		
